The assay deals with T1, SpoT catalytic domains (SpoT^1-378) (E. coli, UniProt P0AG24 1-378).
T1 construct: SpoT, E. coli, residues 1-378 (catalytic domains: hydrolase and synthetase); no cleavage is described; also called SpoT^1–378-6His; recombinant SpoT^1–378
As to the kind of experiment: BLI; biotinylated YtfK (2.5 µM) on streptavidin biosensors; SpoT1-378 (5-80 µM) or RelA1-396 (40-120 µM) as analyte; BLItz, 25 °C; 50 mM Tris-HCl pH 8.0, 500 mM NaCl, 500 mM KCl, 2 mM β-mercaptoethanol, glycerol 2%, BSA 1 mg/ml; KD estimated from responses 10 s before the end of association, one-site fit. The conditions noted are these: both partners purified.

T1 sequence (P0AG24 1-378): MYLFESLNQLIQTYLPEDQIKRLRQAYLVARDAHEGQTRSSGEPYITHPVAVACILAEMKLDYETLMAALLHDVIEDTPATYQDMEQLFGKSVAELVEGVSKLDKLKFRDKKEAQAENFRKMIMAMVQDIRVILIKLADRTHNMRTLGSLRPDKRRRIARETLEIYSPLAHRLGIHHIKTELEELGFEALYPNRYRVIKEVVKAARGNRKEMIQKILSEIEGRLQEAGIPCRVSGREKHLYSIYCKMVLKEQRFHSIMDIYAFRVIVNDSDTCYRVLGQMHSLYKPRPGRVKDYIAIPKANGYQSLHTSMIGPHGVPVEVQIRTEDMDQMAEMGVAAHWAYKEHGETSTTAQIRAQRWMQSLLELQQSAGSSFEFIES

B1: YtfK, purified, biotinylated (natural protein)
chain: not shown
modifications: biotin (EZ-Link NHS-PEG4-Biotin, 1:1 ratio of YtfK and biotin)
notes: YtfK, E. coli; ytfK gene amplified from E. coli chromosomal DNA and cloned in pET28a+-TRX (thioredoxin-6his-tev); the TRX-6His-TEV cassette (NcoI/BamHI) lies upstream of ytfK (BamHI/HindIII), so residues from the TEV site and cloning site may remain at the N-terminus; also called Untagged YtfK; biotinylated YtfK
The Kd is the free concentration of one partner at which half of the binding sites on the other are occupied at equilibrium, for simple one-to-one binding. Take B1: the dissociation constant Kd was 35 µM.

The record behind these values is paper PMC6917717, “YtfK activates the stringent response by triggering the alarmone synthetase SpoT in Escherichia coli” (Nature Communications, 2019).
